test: yeast display, Sf9 membrane polyspecificity reagent, FACS + sequencing; frameworks hold sequencing errors
Summary of the method: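 Polyreactivity labels are assigned by the sorting gate from which each nanobody was recovered. The gates were low and high (top ~1%), set on anti-HA fluorescence for expression and streptavidin fluorescence for reagent binding. Before sorting, galactose-induced (36–48 hours) yeast display cells were stained for 1 hour at 4 °C with 10% biotinylated, detergent-solubilized Sf9 membrane reagent.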

Row | Sequence | polyreactivity (PSR sort gate)
1 | QVQLVESGGGLVQAGGSLRVSCAASGFIIIGYVMGWYRQSPGKERELVAAITSSGGSTYYADSVKGRFTISRDNAKNTVYLQMNSLKPEDTAVYYWNADIYISPLVQVSKGYDYWGQGTQVTVSS | low polyreactivity
2 | QVQLVESGGGLVQAGGSLRISCAASGSNFTQYDMGWYRQAPGKERELVAAITSGGSTDYADSVKGRFTISRDNAKNTVYLQMNSLKPEDTAVYYCNAEAYPYWYRGASREYDYWGQGTQVTVSS | low polyreactivity
3 | QVQLVESGGGLDQAGGSLRLICAASGTTFSPYAMGWYRQAPGKQRELGANITISGGSTFYADSVKGRFTISRDYAKNTDYLQMKSLKPEDTAVDYCNADSLIRWLFTVVIFDYCGQGTQVTVSS | low polyreactivity
4 | QVQLVESGGGLVQAGGSLRLSCAASGSIFEWNDMGWYRQAPGKEREFVAAITSTDDGTYYADSVKGRFTISRDNAKNTVYLQMNSLKPEVTAVYYCAVDYWDVPYYWGQGTQVTVSS | low polyreactivity
5 | QVQLVESGGGLVQAGGSLRLSCAASGSTFADYAMGWYRQAPGKERELVAAISWSGGRTYYADSVKGRFTISRDNAKNTVYLQMNSLKPEDTAVYYCAAGFGDGPGNGYYTRYSWDDDYWGQGTQVTVSS | low polyreactivity
6 | QVQLVESGGGLVQAGGSLRLSCAASGRIFRSNSMGWYRQAPGKERELVATITRSGGSTYYADSGKGRFSISRDNAKNTVYVQKNSLKPEDTAVYYCNAVFGSAYRAQRIMGYWGQGTQVTVSS | low polyreactivity
7 | QVQLVESGGCLVQAGGSLRLSCAASGSIIYCYAMGWYRQAPGKERELVADISRGGITYYADSVKGRFTISRDNAKNTVYLQMNSLKPEDTAVYYCSKTHYGVQRLDSWGQGTQVTVSS | low polyreactivity
8 | QVQLVESGGGLVQAGGSLRLSCAASGIIFGWYAMGWYRQAPGKERELVAAISSGGRTNYADSVKGRFTISRDNAKNTVYLQMNSLKPEDTEVYYCAAAYIRGSRRYDYCGQGTQVTVSS | high polyreactivity
9 | QVQLVESGGGLVQAGGSLRLSCAASGSIFYWYAMGWYRQAPGKERELVAAISSGGSTNYADSVKGRFTISRDNAKNTVYLQMNSLKPEDTAVYYCNADIRSFYWEYYTGLDSWGQVTQVTVSS | low polyreactivity
10 | QVQLVESGGGLVQAGGSLRLSCAASGFTFYRYAMGWYRQAPGKERELVASIRWGGGSTYYADSVKGRFTISRDNAKNTFYLEMNSLKPEDTAVYYCAAYFGYTVGRYNYWGQGTQVTVSS | high polyreactivity
11 | QVQLVESGGGLVQAGGSLRLSCADSGRTIDVYAMGWYRHAPGKEREFVAAISTGASTCYADSVKGRFTISRDNAKNTVYLQMNSLKTEDTGVYYCAKRVTRWYGYWGQGTQVTVSA | high polyreactivity
12 | QVQLVESGGGLDQAEGSLRLSCAASGSKINHYARGWYRQAPRKERELVAAITKSGGSTYADSVKGRFTISRDNAKNTVYLKMNSRKPEDTAVYYCAAGRRIYGTKGRGDYWGQGTQVTVSS | low polyreactivity
13 | QVQLVESGGGLVQAGGSLRLSCAASGSTFHTNSMGGYRQAPGKETELVAAIRSGGGTNYADSVKGRFTISRDNAKNTVYLQMNSLKPEDTAVYYCNASPLPYSHRGDYWGQGTQVTVSS | low polyreactivity
14 | QVQLEESGGGLVQAGGSLRLSCAASGSTFGYYAMGWYRKAPGKERELVAAISRSGGSTYYADSVKGRFTISRDNAKNTVYLQMNSLKPEDTAVYYCAAKVYGAVYHYYYWGQGTQVTVSS | high polyreactivity
15 | QVQLVESGGGLVQAGGSLRLSCAASGSIFNLYAMGWYRQAPGKERELVATITWSGGSTYYADSVKGRFTISRDNAKNTVYLQMNSLKPEDTAVYYCAATALEWYPAVYNQYYYWGQGTQVTVSS | low polyreactivity
16 | QVQLVESGGGLVQAGGSLRLSCAAYGRIFFNNAMGWYRQAPGKERELVAAINSGGRTNYADSVKGRFTISRDNAKNTVYLQMNSLKPEDTAVYYCNADDYPVWEFDYWGQGTQVTVSS | low polyreactivity
17 | QVQLVESGGGLVQAGGSLRLSCAASGFTLTAYAMGWYRQPPGKERELVAAITYTGGSTYYADSVKGRFTISRDNAKNTVYLQMNSLKPEDTAGYYCAAEFLSVPYDYGYWGQGTQVTVSS | high polyreactivity
18 | QVQLVESGGGLVQAGGSLRLSCAASGSIFNLYAMGWYRQAPGKERELVAGIRWSGGRTYYADSVKGRFTISRDNAKNTVYLQMNSLKPEDTAVYYCNAGGYLSWWNDYDYWGQGTQVTVSS | high polyreactivity
19 | QVQLVESGGGLVQAGGSLRLSCAASGRIFYLYAMGWYRQAPGKERELVAAISVSGARTYYADSVKGRFTISRDNAKNNVYLQMNSLKPEDTAVYYCATVGPYRSRRAGDYWGQGTQVTVSS | high polyreactivity
20 | QVQLVESGGGLVQAGGSLRLSCAASGLIYWYAMGWYRQAPGKERELVAAISSNGGSTYYADSVKGRFTISRDNAKNTVYLQMNSLKPEDTAVYYCAAEDYYIYREPYDYWGQGTQVTVSS | low polyreactivity
21 | QVQLVESGGGLVQAGGSLRLSCAASGLTFWGYAMGWYRQAPGKEREFVASISSGGGSTYYADSVKGRFTMSRDNAKNTVYLQMNSLKPEDTAVYYCNAYRTKYRNQYTYATFDYWGQGTQVTVSS | low polyreactivity
22 | QVQLVESGGGLVQAGGSLRLTCAASGSTLRYYAMGWYRQAPGKERELVAAISTGGSTYYADSVKGRFTISRDNAKITVYLQINSLKPEDTAVYYCAAEKKTKTYRYDYWGQGTQVTVSS | low polyreactivity
23 | QVQLVESGGGLVQAGGSLRLSCAASGRILYRYVMGWYRQAPGKERELVAGISWSGGSTYYADSVKGRFTISRDNAKNTVYLQMNSLNPEDTAVYYCNKYIGALGRWGYDYWGQGTQVTVSS | low polyreactivity
24 | QVQLVESGGGLVQAGGSLRLSCAASGITFRVNTMGWYRKAPGKETEFVATISYSGDSTYYADSVKGRFTISRDNAKNTVYLQMNSLKPEDTAVYYCATELVFYGRDYWGQGTQVTVSS | low polyreactivity
25 | QVQIEESGGCLVQAGGSLRLSCAASGNTFFKYNMGWSRQAPRKERELVAAITWSGGSTSYADSVKGRFTISRDNAKNTVYLQMNSLKPEDTAVYYCAAAWSHSRWDTHDYWGQGTQVTVSS | low polyreactivity
26 | QVQLVESGGGLVQAGGSLRLSCAASGRTQRYYAMGWYRQAPRKERELVAAITKSGGSTYYADSVKGRITISRDNAKNTVYLQMYSLKPEDTAVYYFNKVTYSRAQYIGGDGYYWGQGTQVTVSS | high polyreactivity
27 | QVQLVESGGGLVQAGGSLRLSCAASGFTFGRYAMGWYRQAPGKERELVAAISRTGGRTYYADSVKGRFTISRDNAKNTVYLQMNSLKPEDTAVYYCAADKGGTYFNGDSWGQGTLVTVSS | high polyreactivity
28 | QVQLVESGGGLVQAGGSLRLSCAASGITFSRNPMGWYRQAPGKEWELVAAISWSGGSTYYADSVKGRYTISRDNAKNTVYLQMNSLKPEDTAVYYCNVGRRERLEGGYWGQGTQVTVSS | high polyreactivity
29 | QVQLEESGGGLVQAGGSLRLSCAASGSTVGIYAMGWYRPAPGKERELVAAISSRGSTYYADSVKGRFTISRDNAKNTVYLQMNSLKPEDTAVYYCAAGYAWYNYWGQGTQVTVSS | high polyreactivity
30 | QVQLVESGGGLVQAGGSLRISCAASGRTFYGYTMGWDRQAPGKERELVAAISRNGASTFYADSVKGRFTISRDNAKNTVYLQMNSLKPEDTAVYYCNARSWRHTDTSFEYWGQGTQVTVSS | high polyreactivity

Reference: the nanobody polyreactivity screen of Harvey et al. (2022)
